# In PMC9927553:
# Positions count from the first letter of the chain named.
# Tests used:
# [1] = molecular target: T1, LexA (Salmonella) (Salmonella enterica serotype Agona strain 47SA97) (UniProt B5F1Q6); experiment: EMSA; conditions: EMSA: 40 ng DNA probe, 0-600 ng LexA, binding buffer E (composition not stated; Thermo E33075 EMSA kit), 10 uL, 20 min on ice; 6% native Tris-glycine PAGE …
# T1 sequence: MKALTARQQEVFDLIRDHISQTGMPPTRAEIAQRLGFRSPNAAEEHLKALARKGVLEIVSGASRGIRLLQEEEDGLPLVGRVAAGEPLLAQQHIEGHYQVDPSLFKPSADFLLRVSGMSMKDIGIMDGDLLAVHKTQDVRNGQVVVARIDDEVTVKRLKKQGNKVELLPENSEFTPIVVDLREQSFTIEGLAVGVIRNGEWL
# [2] = molecular target: T2, LexA (E. coli) (Escherichia coli MG1655) (UniProt P0A7C2); experiment: EMSA; conditions: EMSA: 40 ng DNA probe, 0-600 ng LexA, binding buffer E (composition not stated; Thermo E33075 EMSA kit), 10 uL, 20 min on ice; 6% native Tris-glycine PAGE …
# T2 sequence: T1 sequence with L56I, D74E, S108N, T175K, E183Q, E200D
Sequence,binding [1],binding [2]
AGTTGTTCCGCAGTAGCCATTATTCAATCTCCATAAGACGGGGCAACTTTACCAATTTTATACAATAAAGTCTGTGTAGTATGACAGGGTTTAAGCACTTAATCCCCTCTAGAATTTTGTACACTCACCACCCCTACATGATTATAAATAGTCGTTCTAGATACACCATATCGCCTAGCAACA (double strand) [PsgiAT probe],no binding,no binding
ACACACCTGATTTATTCACTGATTAACTTTGTCATCAATCATAAATACCATGACTTTTTGATAATGCAACGCCAAATAAGTTGTTTTTTTACAGTATCATTTTATGGTGCTATGAAGATTTGCATTTCTGAACGATAATCTATAATCGGTTACATATTAATCAGGAGGCGT (double strand) [PsgaDC* probe],no binding,no binding
ACACACCTGATTTATTCACTGATTAACTTTGTCATCAATCATAAATACCATGACTTTTTGATAATGCAACGCCAAATACTGTGTTTTTTTACAGTATCATTTTATGGTGCTATGAAGATTTGCATTTCTGAACGATAATCTATAATCGGTTACATATTAATCAGGAGGCGT (double strand) [PsgaDC probe],binds,binds
